Reference: the supplement of paper PMC9732359
± gives the uncertainty stated by the source.

Test: protein stability index of a GFP-peptide fusion (yeast GPS) (PSI 1-4); higher = more stable; sorted into four equal gates, so the index is relative within each strain
Summary of the method: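 Each library plasmid carries Cherry plus GFP with a tiled 17-residue yeast protein peptide fused downstream, and the pooled library was carried in yeast. Mid-log cultures in leucine-free medium were sorted into four equal gates by GFP/Cherry ratio. Reads from Illumina sequencing of PCR-amplified plasmids from each gate were assigned to strains by barcodes. Per peptide, the protein stability index was computed as the summed products of gate read frequency and gate number.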

Sequence	protein stability index (doa10∆)	protein stability index (pdr5∆)	protein stability index (san1∆)	protein stability index (ubr1∆)
LIVDVKQQGVGLPTDAY [RPN8]	2.07 ± 0.25	2.77 ± 0.25	1.28 ± 0.26	–
TDYARAKNRILASKIKQ [RRI1]	1.93 ± 0.097	2.07 ± 0.072	1.94 ± 0.091	1.91 ± 0.063
YLHIRDKILQLNDRFQT [PGD1]	2.62 ± 0.056	2.02 ± 0.064	2.38 ± 0.053	2.27 ± 0.038
EEFRNLAALNVWYGLSD [SSN2]	3.37 ± 0.14	2.8 ± 0.13	2.39 ± 0.12	2.94 ± 0.074
NFEAALFAKSSSKKEYM [GAL11]	1.99 ± 0.085	2.52 ± 0.084	2.17 ± 0.1	2.67 ± 0.058
GAFDQLKQNAIRARIPF [SRP54]	2.69 ± 0.063	2.89 ± 0.06	2.9 ± 0.057	3.03 ± 0.07
IIPIVDYAQLDHLVSSI [ARP9]	2.13 ± 0.05	2.48 ± 0.051	2.34 ± 0.053	2.38 ± 0.039
TTSYIKEQENITIQDLL [DPB4]	3.09 ± 0.19	2.83 ± 0.17	2.86 ± 0.082	3.02 ± 0.27
ISTHLKTICNLLISDTE [IRR1]	1.64 ± 0.05	1.86 ± 0.059	1.88 ± 0.088	1.5 ± 0.032
TSPGYSPGSPAYSPKQD [RPO21]	2.31 ± 0.087	2.1 ± 0.063	2.39 ± 0.11	1.77 ± 0.05
SEYMVFGKLAFPTRLGQ [YJL039C/NUP192]	3.01 ± 0.073	2.52 ± 0.062	2.75 ± 0.067	2.15 ± 0.059
KEHDEIEEQGDALQDVE [DPB4]	3.17 ± 0.092	3.39 ± 0.12	3.36 ± 0.06	3.36 ± 0.067
TLRTISFKGSPNERKAK [SNF2]	3.19 ± 0.17	–	2.74 ± 0.15	2.51 ± 0.13
NSSMRYGYWFDCRMGNF [AAR2]	–	–	1.83 ± 0.12	–
EREIMNDHSKSANPKKT [SWI3]	3.29 ± 0.077	3.3 ± 0.084	3.3 ± 0.16	3.31 ± 0.065
PKTELTKGDSTPVQPDL [YAR002W/NUP60]	3.16 ± 0.055	3.14 ± 0.067	3.08 ± 0.072	3.1 ± 0.037
VQMAKILRKELSEEKEV [MCD1]	3.37 ± 0.21	3.17 ± 0.27	2.9 ± 0.12	–
KLTGDDQKFGVPVRSFK [ASC1]	2.36 ± 0.16	3.16 ± 0.12	2.77 ± 0.1	3 ± 0.1
GHIVSLELTTGATYRGK [SMD3]	1.98 ± 0.049	2.03 ± 0.049	2.12 ± 0.085	2.34 ± 0.053
QNNSKHTEDTVNESRNS [SRB5]	–	2.73 ± 0.1	2.95 ± 0.09	2.98 ± 0.11
TAAANTEKLSNGFSFTK [YOR098C/NUP1]	2.81 ± 0.079	2.48 ± 0.057	2.56 ± 0.065	2.46 ± 0.044
SQLGGNKTVNEAAKPSL [YJL041W/NSP1]	3.36 ± 0.11	3.09 ± 0.079	2.32 ± 0.17	3.26 ± 0.07
SCEVEEIGLLGGRYVYP [SNU114]	3.27 ± 0.092	3.04 ± 0.066	2.85 ± 0.065	2.8 ± 0.06
VRCKDCGHRILLKARTK [RPC10]	2.55 ± 0.12	2.64 ± 0.11	2.56 ± 0.1	2.87 ± 0.072
ATVLSRKILKKTFKNPK [RPN5]	2.4 ± 0.044	2.67 ± 0.047	2.55 ± 0.057	2.87 ± 0.037
DLALPPPPPPPPGYEIE [PRP8]	3.08 ± 0.088	2.98 ± 0.11	2.54 ± 0.14	2.95 ± 0.073

Sequence	protein stability index (doa10∆)	protein stability index (pdr5∆)	protein stability index (san1∆)	protein stability index (ubr1∆)
SEEERKSSPISNEAAKP [YOR098C/NUP1]	2.94 ± 0.099	2.97 ± 0.099	3.07 ± 0.069	3.21 ± 0.071
YNVKNIIQGRKNFDMLN [PCI8]	2.51 ± 0.035	2.52 ± 0.037	2.72 ± 0.039	2.58 ± 0.028
NVLIGGYDKKKNKPELY [PRE1]	–	2.53 ± 0.27	–	2.74 ± 0.27
GKGTGKTAMAELALLNH [BRR2]	3.19 ± 0.11	3.51 ± 0.15	3.45 ± 0.099	3.22 ± 0.082
NFLRLPASNILRRTTQR [YDL116W/NUP84]	3.08 ± 0.27	–	3.25 ± 0.13	–
NVIKTGIRIISLTYKKI [RPN3]	1.83 ± 0.1	2.25 ± 0.081	1.99 ± 0.12	2.2 ± 0.042
EEEVDIDMDKLNTVLIA [RRP43]	3.35 ± 0.091	3.32 ± 0.095	3.02 ± 0.077	2.89 ± 0.068
ALKTSIQHVGMINGRKL [FAS1]	3.21 ± 0.12	3.21 ± 0.1	3.25 ± 0.067	3.19 ± 0.083
IDVLLEQTTGGNNKDLK [RPB4]	–	3.68 ± 0.27	–	3.5 ± 0.079
VDNTVPSTTLFNFGGKS [YOR098C/NUP1]	1.75 ± 0.047	2.07 ± 0.049	2.28 ± 0.058	2.38 ± 0.033
SLDQGDAEEDSQVENRV [SMC4]	–	–	–	2.83 ± 0.17
IDTLLYLMTYPQQPMVK [RET1]	1.52 ± 0.097	2.09 ± 0.12	2.33 ± 0.13	1.53 ± 0.056
ADWDPESMAYTAFQTQR [YML031W/NDC1]	2.89 ± 0.14	3.34 ± 0.11	3.24 ± 0.17	3.36 ± 0.12
IQPKNSDDQQEAVELVI [YML103C/NUP188]	2.85 ± 0.19	–	3.4 ± 0.13	3.34 ± 0.12
QLFHNLISIHSRENNSE [YJL039C/NUP192]	2.6 ± 0.079	2.61 ± 0.076	2.3 ± 0.11	2.88 ± 0.091
KEQYNRYRDLMISCLMN [MTR3]	2.07 ± 0.085	2.41 ± 0.053	2.4 ± 0.07	2.46 ± 0.086
LQDLEEAKSFQDEAELV [RPC82]	3.5 ± 0.12	3.3 ± 0.15	3.52 ± 0.14	3.72 ± 0.17
TTPYMTKYERARILGTR [RPO26]	2.97 ± 0.14	3.3 ± 0.091	2.56 ± 0.18	3.45 ± 0.09
SKDEPVSKAVESKSLLN [SIR4]	2.39 ± 0.097	2.82 ± 0.091	1.37 ± 0.12	1.86 ± 0.097
SNVAAIFKGIGGNFKDL [GAL11]	2.78 ± 0.11	2.76 ± 0.079	2.58 ± 0.079	2.72 ± 0.1
PLIKKIKYEPRFEKAVK [SMC3]	2.75 ± 0.072	2.72 ± 0.098	2.53 ± 0.13	2.48 ± 0.079
LRYVKQIEGPFLIIVPK [ISW2]	2.15 ± 0.081	2.3 ± 0.059	2.29 ± 0.065	2.34 ± 0.045
VNFTEIGGLIPQWKRHL [YCS4]	3.46 ± 0.25	–	–	–
YSSIPSLQDSIIKQENF [SSN2]	2.7 ± 0.13	2.99 ± 0.17	2.5 ± 0.086	2.79 ± 0.14
KKRSQAKMNAKTDFAKI [RPC82]	3.42 ± 0.094	3.23 ± 0.12	3.22 ± 0.076	3.37 ± 0.059
